T1: hBCMA (human BCMA) (Homo sapiens, UniProt Q02223)
T1 sequence (Q02223 1-184): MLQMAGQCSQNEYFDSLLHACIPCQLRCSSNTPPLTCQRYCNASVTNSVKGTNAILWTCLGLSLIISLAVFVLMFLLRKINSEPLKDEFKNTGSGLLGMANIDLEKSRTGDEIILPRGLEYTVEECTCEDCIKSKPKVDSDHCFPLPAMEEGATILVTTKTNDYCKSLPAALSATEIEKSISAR


Key:
hBCMA (human BCMA) = target: T1, hBCMA (human BCMA); experiment: Kinetics and affinity of hBCMA/human IgG interactions by SPR (Bio-Rad Proteon XPR36); assay type: binding; conditions: human BCMA, 37° C.
Summary of the method: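 Captured here: binding of soluble BCMA to covalently coupled anti-BCMA IgGs, measured at 37° C. or 25° C. with a five-point single-cycle series (top 50 nM, fivefold dilution) and extended 2 h off-rate phase, analyzed by a 1:1 mass-transport-corrected model.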

Cyno BCMA = experiment: Kinetics and affinity of cyno BCMA/human IgG interactions by SPR (Bio-Rad Proteon XPR36); assay type: binding, cynomolgus; conditions: 37° C.

Molecule | ka Human (hBCMA (human BCMA)) | kd Human (hBCMA (human BCMA)) | ka Cyno (Cyno BCMA) | kd Cyno (Cyno BCMA) | Kd (hBCMA (human BCMA)) | Kd (Cyno BCMA)
A02_Rd4_6 nM_C25: anti-BCMA antibody (antibody, V domains shown) VH: EVQLLESGGGLVQPGGSLRLSCAASGFTFSSYAMNWVRQAPGKGLEWVSAISDSGGSRWYADSVKGRFTISRDNSKNTLYLQMNSLRAEDTAVYYCARYWPMTPWGQGTLVTVSS VL: EIVLTQSPGTLSLSPGERATLSCRASQSVSSSYLAWYQQKPGQAPRLLMYDASIRATGIPDRFSGSGSGTDFTLTISRLEPEDFAVYYCQQYLDWPLTFGQGTKVEIK | 2.75e+06 M⁻¹ s⁻¹ | 0.00018 s⁻¹ | 1.5e+06 M⁻¹ s⁻¹ | 0.00033 s⁻¹ | – | –
A02_Rd4_6 nM_C07: anti-BCMA antibody (antibody, V domains shown) VH: EVQLLESGGGLVQPGGSLRLSCAASGFTFSSYAMNWVRQAPGKGLEWVSAIGGSGGSLPYADSVKGRFTISRDNSKNTLYLQMNSLRAEDTAVYYCARYWPMDSWGQGTLVTVSS VL: EIVLTQSPGTLSLSPGERATLSCRASQSVSPYYLAWYQQKPGQAPRLLMYDASIRATGIPDRFSGSGSGTDFTLTISRLEPEDFAVYYCQQYERWPLTFGQGTKVEIK | 1.48e+06 M⁻¹ s⁻¹ | 0.000189 s⁻¹ | 691000 M⁻¹ s⁻¹ | 0.000786 s⁻¹ | – | –
A02_Rd4_6 nM_C23: anti-BCMA antibody (antibody, V domains shown) VH: EVQLLESGGGLVQPGGSLRLSCAASGFTFSSYAMNWVRQAPGKGLEWVSAISDSGGSGWYADSVKGRFTISRDNSKNTLYLQMNSLRAEDTAVYYCARYWPMSLWGQGTLVTVSS VL: EIVLTQSPGTLSLSPGERATLSCRASQSVSVEYLAWYQQKPGQAPRLLMYDASIRATGIPDRFSGSGSGTDFTLTISRLEPEDFAVYYCQQYARWPLTFGQGTKVEIK | 1.22e+07 M⁻¹ s⁻¹ | 0.000255 s⁻¹ | 2.63e+06 M⁻¹ s⁻¹ | 0.000414 s⁻¹ | – | –
A02_Rd4_6 nM_C04: anti-BCMA antibody (antibody, V domains shown) VH: EVQLLESGGGLVQPGGSLRLSCAASGFTFSSYAMNWVRQAPGKGLEWVSAIMSSGGPLYYADSVKGRFTISRDNSKNTLYLQMNSLRAEDTAVYYCARYWPMALWGQGTLVTVSS VL: EIVLTQSPGTLSLSPGERATLSCRASQSVSALYLAWYQQKPGQAPRLLMYDASIRATGIPDRFSGSGSGTDFTLTISRLEPEDFAVYYCQQYQVWPLTFGQGTKVEIK | 4.47e+06 M⁻¹ s⁻¹ | 0.000603 s⁻¹ | 2.18e+06 M⁻¹ s⁻¹ | 0.000831 s⁻¹ | 0.135 nM | 0.381 nM
A02_Rd4_0.6 nM_C26: anti-BCMA antibody (antibody, V domains shown) VH: EVQLLESGGGLVQPGGSLRLSCAASGFTFSSYAMNWVRQAPGKGLEWVSAILMSGGSTYYADSVKGRFTISRDNSKNTLYLQMNSLRAEDTAVYYCARYWPMSLWGQGTLVTVSS VL: EIVLTQSPGTLSLSPGERATLSCGPSQSVSSSYLAWYQQKPGQAPRLLMYDASIRATGIPDRFSGSGSGTDFTLTISRLEPEDFAVYYCQQYQSWPLTFGQGTKVEIK | 7.26e+06 M⁻¹ s⁻¹ | 0.000443 s⁻¹ | 2.71e+06 M⁻¹ s⁻¹ | 0.00256 s⁻¹ | – | –
A02_Rd4_6 nM_C10: anti-BCMA antibody (antibody, V domains shown) VH: EVQLLESGGGLVQPGGSLRLSCAASGFTFSSYAMNWVRQAPGKGLEWVSAISDSGGSCWYADSVKGRFTISRDNSKNTLYLQMNSLRAEDTAVYYCARYWPMTPWGQGTLVTVSS VL: EIVLTQSPGTLSLSPGERATLSCRASQSVEMSYLAWYQQKPGQAPRLLMYDASIRATGIPDRFSGSGSGTDFTLTISRLEPEDFAVYYCQQYAHWPLTFGQGTKVEIK | 4.51e+06 M⁻¹ s⁻¹ | 0.000315 s⁻¹ | 1.9e+06 M⁻¹ s⁻¹ | 0.000898 s⁻¹ | – | –
A02_Rd4_0.6 nM_C10: anti-BCMA antibody (antibody, V domains shown) VH: EVQLLESGGGLVQPGGSLRLSCAASGFTFSSYAMNWVRQAPGKGLEWVSAISGWGGSLPYADSVKGRFTISRDNSKNTLYLQMNSLRAEDTAVYYCARYWPMDSWGQGTLVTVSS VL: EIVLTQSPGTLSLSPGERATLSCRASQSVSAQYLAWYQQKPGQAPRLLMYDASIRATGIPDRFSGSGSGTDFTLTISRLEPEDFAVYYCQQYQRWPLTFGQGTKVEIK | 2.3e+06 M⁻¹ s⁻¹ | 0.000296 s⁻¹ | 883000 M⁻¹ s⁻¹ | 0.00163 s⁻¹ | – | –
A02_Rd4_6 nM_C19: anti-BCMA antibody (antibody, V domains shown) VH: EVQLLESGGGLVQPGGSLRLSCAASGFTFSSYAMNWVRQAPGKGLEWVSAISDSGGSRWYADSVKGRFTISRDNSKNTLYLQMNSLRAEDTAVYYCARYWPMSDWGQGTLVTVSS VL: EIVLTQSPGTLSLSPGERATLSCRASQSVSVLYLAWYQQKPGQAPRLLMYDASIRATGIPDRFSGSGSGTDFTLTISRLEPEDFAVYYCQQYLAWPLTFGQGTKVEIK | 3e+06 M⁻¹ s⁻¹ | 0.000148 s⁻¹ | 2.54e+06 M⁻¹ s⁻¹ | 0.000661 s⁻¹ | 0.049 nM | 0.26 nM
A02_Rd4_6 nM_C05: anti-BCMA antibody (antibody, V domains shown) VH: EVQLLESGGGLVQPGGSLRLSCAASGFTFSSYAMNWVRQAPGKGLEWVSAIFASGGSTYYADSVKGRFTISRDNSKNTLYLQMNSLRAEDTAVYYCARYWPMTPWGQGTLVTVSS VL: EIVLTQSPGTLSLSPGERATLSCRASQSVSSSYLAWYQQKPGQAPRLLMYDASIRATGIPDRFSGSGSGTDFTLTISRLEPEDFAVYYCQQYQRWPLTFGQGTKVEIK | 3.1e+06 M⁻¹ s⁻¹ | 0.000308 s⁻¹ | 1.36e+06 M⁻¹ s⁻¹ | 0.00129 s⁻¹ | – | –
A02_Rd4_6 nM_C22: anti-BCMA antibody (antibody, V domains shown) VH: EVQLLESGGGLVQPGGSLRLSCAASGFTFSSYAMNWVRQAPGKGLEWVSAVLDSGGSTYYADSVKGRFTISRDNSKNTLYLQMNSLRAEDTAVYYCARYWPMTPWGQGTLVTVSS VL: EIVLTQSPGTLSLSPGERATLSCRASQSVSSSYLAWYQQKPGQAPRLLMYDASIRATGIPDRFSGSGSGTDFTLTISRLEPEDFAVYYCQQYQVWPLTFGQGTKVEIK | 3.38e+06 M⁻¹ s⁻¹ | 0.000182 s⁻¹ | 1.84e+06 M⁻¹ s⁻¹ | 0.000324 s⁻¹ | – | –
A02_Rd4_0.6 nM_C18: anti-BCMA antibody (antibody, V domains shown) VH: EVQLLESGGGLVQPGGSLRLSCAASGFTFSSYAMNWVRQAPGKGLEWVSAVLDSGGSTYYADSVKGRFTISRDNSKNTLYLQMNSLRAEDTAVYYCARYWPMSLWGQGTLVTVSS VL: EIVLTQSPGTLSLSPGERATLSCRASQSVSELYLAWYQQKPGQAPRLLMYDASIRATGIPDRFSGSGSGTDFTLTISRLEPEDFAVYYCQQYFGWPLTFGQGTKVEIK | 4.73e+06 M⁻¹ s⁻¹ | 0.000229 s⁻¹ | 3.24e+06 M⁻¹ s⁻¹ | 0.000639 s⁻¹ | 0.048 nM | 0.197 nM
A02_Rd4_0.6 nM_C13: anti-BCMA antibody (antibody, V domains shown) VH: EVQLLESGGGLVQPGGSLRLSCAASGFTFSSYAMNWVRQAPGKGLEWVSAISDSGGYRYYADSVKGRFTISRDNSKNTLYLQMNSLRAEDTAVYYCARYWPMSLWGQGTLVTVSS VL: EIVLTQSPGTLSLSPGERATLSCRASQSVSSSYWAWYQQKPGQAPRLLMYDASIRATGIPDRFSGSGSGTDFTLTISRLEPEDFAVYYCQQYESWPLTFGQGTKVEIK | 8.53e+06 M⁻¹ s⁻¹ | 0.000566 s⁻¹ | 2.29e+06 M⁻¹ s⁻¹ | 0.00128 s⁻¹ | – | –
A02_Rd4_0.6 nM_C03: anti-BCMA antibody (antibody, V domains shown) VH: EVQLLESGGGLVQPGGSLRLSCAASGFTFSSYAMNWVRQAPGKGLEWVSAISDSGGSKWYADSVKGRFTISRDNSKNTLYLQMNSLRAEDTAVYYCARYWPMSLWGQGTLVTVSS VL: EIVLTQSPGTLSLSPGERATLSCRASQSVSSSYLAWYQQKPGQAPRLLMYDASIRATGIPDRFSGSGSGTDFTLTISRLEPEDFAVYYCQQYFTWPLTFGQGTKVEIK | 4.27e+06 M⁻¹ s⁻¹ | 0.000182 s⁻¹ | 2.12e+06 M⁻¹ s⁻¹ | 0.000426 s⁻¹ | – | –

Reference: patent US11814435B2, “Therapeutic antibodies and their uses” (PFIZER INC., priority 2015, dated 2023)
